This test addresses wild-type E. coli core RNA polymerase (E. coli, UniProt P0A8T7 1-1407; P0A8V2 1-1342; P0A7Z4 1-329; P0A800 1-91). Nature of the test: fluorescence polarisation.

Sequence of wild-type E. coli core RNA polymerase (P0A8T7 whole entry, chain 1 of 4): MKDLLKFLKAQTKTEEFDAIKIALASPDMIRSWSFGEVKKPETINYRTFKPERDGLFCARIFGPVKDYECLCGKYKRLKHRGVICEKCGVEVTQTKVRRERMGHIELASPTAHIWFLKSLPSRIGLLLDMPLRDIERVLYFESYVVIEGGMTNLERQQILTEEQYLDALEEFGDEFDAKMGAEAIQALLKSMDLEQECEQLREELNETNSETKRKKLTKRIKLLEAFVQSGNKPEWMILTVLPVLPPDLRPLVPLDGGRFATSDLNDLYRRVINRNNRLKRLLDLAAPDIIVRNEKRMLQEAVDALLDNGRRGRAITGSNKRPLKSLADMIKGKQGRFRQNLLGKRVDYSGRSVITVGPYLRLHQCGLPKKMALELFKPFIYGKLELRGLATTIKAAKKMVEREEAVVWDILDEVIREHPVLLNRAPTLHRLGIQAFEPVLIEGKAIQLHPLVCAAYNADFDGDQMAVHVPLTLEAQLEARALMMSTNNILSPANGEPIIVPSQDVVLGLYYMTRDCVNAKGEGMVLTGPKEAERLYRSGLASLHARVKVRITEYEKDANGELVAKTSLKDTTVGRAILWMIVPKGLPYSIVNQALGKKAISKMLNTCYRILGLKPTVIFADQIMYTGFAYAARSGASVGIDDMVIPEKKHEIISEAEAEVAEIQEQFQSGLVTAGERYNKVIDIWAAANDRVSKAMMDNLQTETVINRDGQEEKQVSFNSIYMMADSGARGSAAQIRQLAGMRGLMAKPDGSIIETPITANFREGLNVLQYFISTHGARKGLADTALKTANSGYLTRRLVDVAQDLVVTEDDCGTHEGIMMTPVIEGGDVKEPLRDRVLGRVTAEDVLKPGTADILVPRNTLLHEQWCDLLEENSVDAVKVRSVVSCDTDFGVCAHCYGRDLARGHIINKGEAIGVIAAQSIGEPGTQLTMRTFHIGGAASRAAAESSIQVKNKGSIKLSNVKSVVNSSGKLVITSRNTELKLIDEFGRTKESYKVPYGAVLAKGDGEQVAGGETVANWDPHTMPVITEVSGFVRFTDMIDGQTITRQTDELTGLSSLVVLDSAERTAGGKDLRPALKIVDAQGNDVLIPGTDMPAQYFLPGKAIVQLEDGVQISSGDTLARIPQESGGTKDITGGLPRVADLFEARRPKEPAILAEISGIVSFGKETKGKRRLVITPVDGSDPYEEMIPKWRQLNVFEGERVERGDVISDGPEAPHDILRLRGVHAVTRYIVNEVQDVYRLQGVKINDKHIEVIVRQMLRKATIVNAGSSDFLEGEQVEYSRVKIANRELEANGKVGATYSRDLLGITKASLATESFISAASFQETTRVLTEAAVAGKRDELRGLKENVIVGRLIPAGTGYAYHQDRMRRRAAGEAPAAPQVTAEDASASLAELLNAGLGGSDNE
Sequence of wild-type E. coli core RNA polymerase (P0A8V2 whole entry, chain 2 of 4): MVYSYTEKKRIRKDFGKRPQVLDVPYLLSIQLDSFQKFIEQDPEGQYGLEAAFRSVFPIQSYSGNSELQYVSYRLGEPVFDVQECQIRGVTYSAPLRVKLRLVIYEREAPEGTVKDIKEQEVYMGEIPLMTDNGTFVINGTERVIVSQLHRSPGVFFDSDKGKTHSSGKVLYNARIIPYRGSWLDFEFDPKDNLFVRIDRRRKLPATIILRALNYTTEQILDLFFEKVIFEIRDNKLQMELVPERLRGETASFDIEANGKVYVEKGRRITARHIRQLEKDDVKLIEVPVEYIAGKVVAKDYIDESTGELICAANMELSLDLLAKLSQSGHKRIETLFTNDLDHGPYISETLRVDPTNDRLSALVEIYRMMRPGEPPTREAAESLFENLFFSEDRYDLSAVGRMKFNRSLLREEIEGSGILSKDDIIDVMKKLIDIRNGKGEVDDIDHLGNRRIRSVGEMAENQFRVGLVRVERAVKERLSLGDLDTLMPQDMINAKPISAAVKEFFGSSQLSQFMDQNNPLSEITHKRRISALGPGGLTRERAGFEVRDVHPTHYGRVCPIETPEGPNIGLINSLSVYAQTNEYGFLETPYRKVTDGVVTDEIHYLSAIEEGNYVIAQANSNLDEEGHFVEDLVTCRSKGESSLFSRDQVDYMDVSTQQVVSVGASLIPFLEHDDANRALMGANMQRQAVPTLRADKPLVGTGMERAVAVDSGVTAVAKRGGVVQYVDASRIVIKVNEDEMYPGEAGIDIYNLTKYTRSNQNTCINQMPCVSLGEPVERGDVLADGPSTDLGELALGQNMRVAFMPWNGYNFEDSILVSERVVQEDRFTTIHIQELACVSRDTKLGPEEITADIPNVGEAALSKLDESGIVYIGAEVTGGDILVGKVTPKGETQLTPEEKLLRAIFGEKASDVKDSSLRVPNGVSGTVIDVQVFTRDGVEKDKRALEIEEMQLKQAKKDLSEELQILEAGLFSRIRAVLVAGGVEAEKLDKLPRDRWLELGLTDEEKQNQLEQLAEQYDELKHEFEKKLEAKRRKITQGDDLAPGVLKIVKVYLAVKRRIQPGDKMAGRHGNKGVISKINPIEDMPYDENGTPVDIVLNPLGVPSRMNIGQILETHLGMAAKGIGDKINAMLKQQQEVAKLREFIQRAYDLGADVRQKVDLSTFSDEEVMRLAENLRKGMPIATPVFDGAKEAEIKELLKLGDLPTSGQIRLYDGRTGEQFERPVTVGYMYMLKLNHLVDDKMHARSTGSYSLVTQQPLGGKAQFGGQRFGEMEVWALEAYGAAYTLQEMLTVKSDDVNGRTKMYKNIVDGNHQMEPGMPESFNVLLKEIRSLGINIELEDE
Sequence of wild-type E. coli core RNA polymerase (P0A7Z4 whole entry, chain 3 of 4): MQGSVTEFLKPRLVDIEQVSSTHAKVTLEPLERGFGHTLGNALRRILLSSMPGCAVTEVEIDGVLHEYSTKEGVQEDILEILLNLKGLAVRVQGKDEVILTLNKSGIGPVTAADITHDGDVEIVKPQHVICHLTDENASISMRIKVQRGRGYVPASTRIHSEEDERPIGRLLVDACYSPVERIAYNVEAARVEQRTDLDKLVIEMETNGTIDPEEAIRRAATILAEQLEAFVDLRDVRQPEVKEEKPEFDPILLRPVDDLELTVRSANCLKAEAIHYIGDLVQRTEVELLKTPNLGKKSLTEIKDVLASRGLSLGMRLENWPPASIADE
Sequence of wild-type E. coli core RNA polymerase (P0A800 whole entry, chain 4 of 4): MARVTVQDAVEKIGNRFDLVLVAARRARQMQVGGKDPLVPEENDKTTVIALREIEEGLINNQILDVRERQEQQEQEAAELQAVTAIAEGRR

B1: DksA^A35C labeled with Alexa Fluor 546 maleimide (natural protein, Escherichia coli, UniProt P0ABS1 1-151, looked up)
chain: MQEGQNRKTSSLSILAIAGVEPYQEKPGEEYMNECQLAHFRRILEAWRNQLRDEVDRTVTHMQDEAANFPDPVDRAAQEEEFSLELRNRDRERKLIKKIEKTLKKVEDEDFGYCESCGVEIGIRRLEARPTADLCIDCKTLAEIREKQMAG
modifications: labeled with Alexa Fluor 546 maleimide (labeling efficiency 60-100%)
By Kd is commonly meant a measure of binding affinity in units of concentration. Read a low Kd as tighter binding. In turn, B1 showed a Kd of 102 ± 13 nM.

(Values after article PMC3333854 (Nucleic Acids Research, 2011).)
